Assay results from patent US20250262210A1 (TRUSTEES OF COLUMBIA UNIVERSITY IN THE CITY OF NEW YORK, published 2025).

Assays:
Experiment in all cases: IP/MS, LZTR1 wild type-FLAG, U87
[1] = biological target: EIF2AK4 (human, UniProt Q9P2K8 1-1649, limits assumed)
Outline: (§1)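 Extracted peptides in 3% acetonitrile/0.1% formic acid ran on a 50 cm C18 column into an Orbitrap Fusion, with MaxQuant identification and spectral counting.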

[2] = biological target: CDC42BPA (human, UniProt Q5VT25 1-1732, limits assumed)
Outline: as §1

[3] = biological target: T1, MOCOS (human, UniProt Q96EN8 1-888)
T1 sequence (looked up): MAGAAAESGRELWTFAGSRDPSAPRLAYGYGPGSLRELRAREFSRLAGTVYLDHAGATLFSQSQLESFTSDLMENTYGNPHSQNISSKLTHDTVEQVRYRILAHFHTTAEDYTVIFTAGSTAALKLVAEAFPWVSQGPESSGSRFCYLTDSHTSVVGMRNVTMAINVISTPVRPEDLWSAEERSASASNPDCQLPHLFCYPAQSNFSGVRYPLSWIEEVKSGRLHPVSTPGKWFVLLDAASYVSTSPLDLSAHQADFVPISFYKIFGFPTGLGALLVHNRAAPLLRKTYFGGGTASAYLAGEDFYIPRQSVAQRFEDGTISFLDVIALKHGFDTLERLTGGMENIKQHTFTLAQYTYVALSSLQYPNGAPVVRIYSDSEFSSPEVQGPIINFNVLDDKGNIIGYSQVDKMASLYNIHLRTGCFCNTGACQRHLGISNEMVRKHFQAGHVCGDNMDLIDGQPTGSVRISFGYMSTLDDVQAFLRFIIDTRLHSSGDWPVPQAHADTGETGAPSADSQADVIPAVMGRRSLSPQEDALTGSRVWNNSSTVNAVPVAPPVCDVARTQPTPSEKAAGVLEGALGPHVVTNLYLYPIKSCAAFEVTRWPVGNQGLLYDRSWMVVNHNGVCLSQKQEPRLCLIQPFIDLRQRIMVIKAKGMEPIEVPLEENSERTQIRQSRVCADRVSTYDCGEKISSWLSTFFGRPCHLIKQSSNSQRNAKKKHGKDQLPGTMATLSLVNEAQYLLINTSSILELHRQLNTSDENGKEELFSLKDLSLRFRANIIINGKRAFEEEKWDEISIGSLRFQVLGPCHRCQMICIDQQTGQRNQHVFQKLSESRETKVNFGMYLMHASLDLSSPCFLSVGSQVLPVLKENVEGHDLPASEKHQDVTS
Outline: as §1

[4] = biological target: TRIO (human, UniProt O75962 1-3097, limits assumed)
Outline: as §1

[5] = biological target: EPG5 (human, UniProt Q9HCE0 1-2579, limits assumed)
Outline: as §1

[6] = biological target: T2, CTDP1 (human, UniProt Q9Y5B0 1-961, limits assumed)
T2 sequence (looked up): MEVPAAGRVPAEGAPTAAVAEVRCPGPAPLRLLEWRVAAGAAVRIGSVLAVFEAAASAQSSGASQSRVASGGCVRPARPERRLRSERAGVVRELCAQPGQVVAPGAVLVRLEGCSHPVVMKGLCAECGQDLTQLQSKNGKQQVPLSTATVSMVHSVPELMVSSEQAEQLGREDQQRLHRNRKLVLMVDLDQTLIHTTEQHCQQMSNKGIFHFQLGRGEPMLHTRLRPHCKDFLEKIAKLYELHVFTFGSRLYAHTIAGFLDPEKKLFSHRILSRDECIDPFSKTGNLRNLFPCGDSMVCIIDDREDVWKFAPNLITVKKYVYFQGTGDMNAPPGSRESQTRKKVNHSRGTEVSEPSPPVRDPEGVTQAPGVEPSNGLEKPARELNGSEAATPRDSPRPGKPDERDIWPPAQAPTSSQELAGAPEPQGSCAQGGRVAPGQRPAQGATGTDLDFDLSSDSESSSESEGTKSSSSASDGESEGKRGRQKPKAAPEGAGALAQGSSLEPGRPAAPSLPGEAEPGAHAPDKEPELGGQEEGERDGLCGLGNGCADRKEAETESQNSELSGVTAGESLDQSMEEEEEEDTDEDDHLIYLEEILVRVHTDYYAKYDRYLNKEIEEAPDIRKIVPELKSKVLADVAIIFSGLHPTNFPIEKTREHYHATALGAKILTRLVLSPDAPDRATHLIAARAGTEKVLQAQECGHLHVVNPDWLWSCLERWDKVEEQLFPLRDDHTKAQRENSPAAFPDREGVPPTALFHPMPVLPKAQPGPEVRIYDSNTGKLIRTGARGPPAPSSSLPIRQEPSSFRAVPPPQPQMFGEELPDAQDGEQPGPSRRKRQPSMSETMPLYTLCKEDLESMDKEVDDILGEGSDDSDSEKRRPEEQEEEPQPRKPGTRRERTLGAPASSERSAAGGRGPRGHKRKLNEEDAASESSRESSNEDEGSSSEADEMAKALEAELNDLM
Outline: as §1

Measured: binding result

EPG5, sequence (Q9HCE0 whole entry): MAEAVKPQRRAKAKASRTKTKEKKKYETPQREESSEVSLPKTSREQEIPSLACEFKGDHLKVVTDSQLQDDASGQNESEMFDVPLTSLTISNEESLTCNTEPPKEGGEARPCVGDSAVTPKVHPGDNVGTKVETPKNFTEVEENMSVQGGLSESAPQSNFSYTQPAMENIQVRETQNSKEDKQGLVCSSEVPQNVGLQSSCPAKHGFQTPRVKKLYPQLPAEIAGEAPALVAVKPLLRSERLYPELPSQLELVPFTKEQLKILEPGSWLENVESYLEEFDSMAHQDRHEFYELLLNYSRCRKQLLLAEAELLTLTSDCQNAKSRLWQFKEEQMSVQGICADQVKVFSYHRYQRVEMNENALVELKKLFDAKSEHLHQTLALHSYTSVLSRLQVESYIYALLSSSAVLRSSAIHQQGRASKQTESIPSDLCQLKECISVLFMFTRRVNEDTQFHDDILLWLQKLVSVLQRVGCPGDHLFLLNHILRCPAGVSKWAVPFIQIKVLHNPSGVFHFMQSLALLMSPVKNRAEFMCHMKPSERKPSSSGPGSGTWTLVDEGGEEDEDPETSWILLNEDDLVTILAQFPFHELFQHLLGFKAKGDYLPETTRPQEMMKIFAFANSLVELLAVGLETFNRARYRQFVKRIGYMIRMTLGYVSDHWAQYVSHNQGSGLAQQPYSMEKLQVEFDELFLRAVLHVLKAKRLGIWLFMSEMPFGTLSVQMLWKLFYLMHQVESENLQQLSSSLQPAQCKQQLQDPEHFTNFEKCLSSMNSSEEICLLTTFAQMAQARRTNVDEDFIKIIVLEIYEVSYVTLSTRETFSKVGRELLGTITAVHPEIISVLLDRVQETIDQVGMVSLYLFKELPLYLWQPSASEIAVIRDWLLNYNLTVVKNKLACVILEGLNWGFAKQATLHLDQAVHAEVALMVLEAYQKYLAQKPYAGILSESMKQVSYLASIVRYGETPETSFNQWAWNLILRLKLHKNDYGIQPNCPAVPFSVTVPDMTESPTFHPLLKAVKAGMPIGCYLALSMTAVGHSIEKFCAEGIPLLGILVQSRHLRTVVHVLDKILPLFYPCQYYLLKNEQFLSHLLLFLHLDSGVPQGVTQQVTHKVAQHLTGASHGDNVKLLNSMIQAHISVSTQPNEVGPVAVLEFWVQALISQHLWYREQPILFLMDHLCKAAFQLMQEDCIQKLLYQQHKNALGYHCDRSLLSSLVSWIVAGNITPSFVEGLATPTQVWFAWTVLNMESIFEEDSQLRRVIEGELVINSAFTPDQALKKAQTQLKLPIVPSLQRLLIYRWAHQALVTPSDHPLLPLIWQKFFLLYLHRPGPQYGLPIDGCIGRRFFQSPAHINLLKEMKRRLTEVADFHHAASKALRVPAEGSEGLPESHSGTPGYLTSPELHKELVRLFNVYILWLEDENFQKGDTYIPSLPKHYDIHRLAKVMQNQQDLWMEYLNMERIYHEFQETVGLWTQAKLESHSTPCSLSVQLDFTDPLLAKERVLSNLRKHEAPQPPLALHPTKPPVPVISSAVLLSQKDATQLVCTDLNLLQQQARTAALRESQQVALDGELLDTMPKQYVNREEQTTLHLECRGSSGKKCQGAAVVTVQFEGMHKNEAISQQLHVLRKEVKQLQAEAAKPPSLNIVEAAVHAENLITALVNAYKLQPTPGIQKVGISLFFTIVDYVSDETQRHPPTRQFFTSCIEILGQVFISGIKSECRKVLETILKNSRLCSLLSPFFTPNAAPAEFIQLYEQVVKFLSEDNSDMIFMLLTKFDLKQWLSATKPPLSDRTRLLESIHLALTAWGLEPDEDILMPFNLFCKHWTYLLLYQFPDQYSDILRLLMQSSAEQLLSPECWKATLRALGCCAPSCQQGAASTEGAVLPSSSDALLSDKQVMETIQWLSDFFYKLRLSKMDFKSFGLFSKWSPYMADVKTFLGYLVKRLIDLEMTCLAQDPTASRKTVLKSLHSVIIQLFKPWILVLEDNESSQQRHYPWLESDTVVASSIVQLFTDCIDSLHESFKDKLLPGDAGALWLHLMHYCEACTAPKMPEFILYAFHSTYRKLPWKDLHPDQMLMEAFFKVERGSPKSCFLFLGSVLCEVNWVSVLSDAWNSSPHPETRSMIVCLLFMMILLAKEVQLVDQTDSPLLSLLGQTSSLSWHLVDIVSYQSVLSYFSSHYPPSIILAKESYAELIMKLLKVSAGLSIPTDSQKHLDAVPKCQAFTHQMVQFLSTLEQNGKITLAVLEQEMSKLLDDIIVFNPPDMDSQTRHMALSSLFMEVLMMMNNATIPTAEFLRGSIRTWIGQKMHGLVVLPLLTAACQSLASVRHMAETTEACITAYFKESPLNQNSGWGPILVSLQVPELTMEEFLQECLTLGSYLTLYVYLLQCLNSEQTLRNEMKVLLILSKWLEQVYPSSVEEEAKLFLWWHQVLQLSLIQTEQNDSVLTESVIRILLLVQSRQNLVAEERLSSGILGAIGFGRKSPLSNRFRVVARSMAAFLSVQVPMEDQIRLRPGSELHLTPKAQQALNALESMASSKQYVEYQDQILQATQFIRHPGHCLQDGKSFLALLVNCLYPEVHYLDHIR
EIF2AK4, sequence (Q9P2K8 whole entry, the tested form may be a part): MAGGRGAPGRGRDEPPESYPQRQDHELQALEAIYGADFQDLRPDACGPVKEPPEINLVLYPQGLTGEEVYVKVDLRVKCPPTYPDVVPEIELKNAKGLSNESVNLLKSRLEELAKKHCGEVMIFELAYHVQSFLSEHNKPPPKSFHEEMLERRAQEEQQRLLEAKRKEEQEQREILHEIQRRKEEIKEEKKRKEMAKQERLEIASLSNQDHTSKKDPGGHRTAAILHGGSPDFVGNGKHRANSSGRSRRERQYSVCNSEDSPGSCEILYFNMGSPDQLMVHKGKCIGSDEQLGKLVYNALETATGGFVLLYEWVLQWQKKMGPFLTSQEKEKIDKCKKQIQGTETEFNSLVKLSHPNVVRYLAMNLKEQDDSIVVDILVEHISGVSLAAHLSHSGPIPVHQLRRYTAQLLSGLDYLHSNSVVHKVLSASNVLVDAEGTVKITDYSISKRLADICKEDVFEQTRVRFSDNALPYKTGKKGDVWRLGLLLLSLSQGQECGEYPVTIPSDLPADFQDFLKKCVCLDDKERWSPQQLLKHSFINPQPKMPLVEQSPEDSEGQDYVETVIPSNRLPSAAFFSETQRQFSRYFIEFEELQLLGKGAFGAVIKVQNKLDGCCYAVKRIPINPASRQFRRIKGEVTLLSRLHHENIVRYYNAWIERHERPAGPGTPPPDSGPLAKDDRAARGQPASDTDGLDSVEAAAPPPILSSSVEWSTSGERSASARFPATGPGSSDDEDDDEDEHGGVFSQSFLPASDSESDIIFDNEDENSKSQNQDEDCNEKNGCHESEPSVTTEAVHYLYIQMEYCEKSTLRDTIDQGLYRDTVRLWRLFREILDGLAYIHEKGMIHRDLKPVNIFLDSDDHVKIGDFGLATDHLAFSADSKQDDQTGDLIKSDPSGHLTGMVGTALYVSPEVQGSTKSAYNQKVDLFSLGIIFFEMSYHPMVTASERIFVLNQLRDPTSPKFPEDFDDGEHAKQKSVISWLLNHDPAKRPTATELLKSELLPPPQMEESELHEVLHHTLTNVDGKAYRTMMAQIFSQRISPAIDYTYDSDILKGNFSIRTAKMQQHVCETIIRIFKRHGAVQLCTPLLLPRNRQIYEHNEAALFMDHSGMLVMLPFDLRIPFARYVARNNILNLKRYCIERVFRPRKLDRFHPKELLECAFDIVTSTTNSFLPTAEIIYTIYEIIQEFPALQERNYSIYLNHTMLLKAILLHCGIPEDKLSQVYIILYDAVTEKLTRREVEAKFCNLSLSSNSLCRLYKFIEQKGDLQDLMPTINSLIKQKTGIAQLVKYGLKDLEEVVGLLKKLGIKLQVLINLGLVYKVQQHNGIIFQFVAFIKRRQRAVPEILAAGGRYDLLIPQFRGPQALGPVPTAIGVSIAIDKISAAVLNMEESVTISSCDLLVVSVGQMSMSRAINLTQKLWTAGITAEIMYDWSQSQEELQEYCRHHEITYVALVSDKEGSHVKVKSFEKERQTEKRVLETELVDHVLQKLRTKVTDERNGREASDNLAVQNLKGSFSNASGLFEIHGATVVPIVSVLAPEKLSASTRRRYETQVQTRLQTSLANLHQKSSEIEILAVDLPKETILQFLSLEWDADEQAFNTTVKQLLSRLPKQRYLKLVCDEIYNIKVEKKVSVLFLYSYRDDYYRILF

B1: LZTR1-FLAG (other, human, UniProt Q8N653 1-840, looked up)
chain: MAGPGSTGGQIGAAALAGGARSKVAPSVDFDHSCSDSVEYLTLNFGPFETVHRWRRLPPCDEFVGARRSKHTVVAYKDAIYVFGGDNGKTMLNDLLRFDVKDCSWCRAFTTGTPPAPRYHHSAVVYGSSMFVFGGYTGDIYSNSNLKNKNDLFEYKFATGQWTEWKIEGRLPVARSAHGATVYSDKLWIFAGYDGNARLNDMWTIGLQDRELTCWEEVAQSGEIPPSCCNFPVAVCRDKMFVFSGQSGAKITNNLFQFEFKDKTWTRIPTEHLLRGSPPPPQRRYGHTMVAFDRHLYVFGGAADNTLPNELHCYDVDFQTWEVVQPSSDSEVGGAEVPERACASEEVPTLTYEERVGFKKSRDVFGLDFGTTSAKQPTQPASELPSGRLFHAAAVISDAMYIFGGTVDNNIRSGEMYRFQFSCYPKCTLHEDYGRLWESRQFCDVEFVLGEKEECVQGHVAIVTARSRWLRRKITQARERLAQKLEQEAAPVPREAPGVAAGGARPPLLHVAIREAEARPFEVLMQFLYTDKIKYPRKGHVEDVLLIMDVYKLALSFQLCRLEQLCRQYIEASVDLQNVLVVCESAARLQLSQLKEHCLNFVVKESHFNQVIMMKEFERLSSPLIVEIVRRKQQPPPRTPLDQPVDIGTSLIQDMKAYLEGAGAEFCDITLLLDGHPRPAHKAILAARSSYFEAMFRSFMPEDGQVNISIGEMVPSRQAFESMLRYIYYGEVNMPPEDSLYLFAAPYYYGFYNNRLQAYCKQNLEMNVTVQNVLQILEAADKTQALDMKRHCLHIIVHQFTKVSKLPTLRSLSQQLLLDIIDSLASHISDKQCAELGADI
notes: Expressed in HEK 293T, HeLa or U87 cells; used as cell lysate; also called LZTR1 wild type-FLAG; LZTR1 WT; not shown: FLAG tag at the C-terminus
binds: [1] | [2] | [3] | [4] | [5] | [6]
